Reference: PMC6769022, “Identification of an adhesive interface for the non-clustered δ1 protocadherin-1 involved in respiratory diseases” (Communications Biology, 2019)
Positions count from the first letter of the chain named. In names and notes the source's numbering stands.

B1: PCDH1 EC1-5 C375S C548S (domain or fragment)
chain: MTRVVYKVPEEQPPNTLIGSLAADYGFPDVGHLYKLEVGAPYLRVDGKTGDIFTTETSIDREGLRECQNQLPGDPCILEFEVSITDLVQNGSPRLLEGQIEVQDINDNTPNFASPVITLAIPENTNIGSLFPIPLASDRDAGPNGVASYELQAGPEAQELFGLQVAEDQEEKQPQLIVMGNLDRERWDSYDLTIKVQDGGSPPRASSALLRVTVLDTNDNAPKFERPSYEAELSENSPIGHSVIQVKANDSDQGANAEIEYTFHQAPEVVRRLLRLDRNTGLITVQGPVDREDLSTLRFSVLAKDRGTNPKSARAQVVVTVKDMNDNAPTIEIRGIGLVTHQDGMANISEDVAEETAVALVQVSDRDEGENAAVTSVVAGDVPFQLRQASETGSDSKKKYFLQTTTPLDYEKVKDYTIEIVAVDSGNPPLSSTNSLKVQVVDVNDNAPVFTQSVTEVAFPENNKPGEVIAEITASDADSGSNAELVYSLEPEPAAKGLFTISPETGEIQVKTSLDREQRESYELKVVAADRGSPSLQGTATVLVNVLDSNDNDLEHHHHHH
B2: PCDH1 EC1-5 C375S C548S V115R (domain or fragment)
chain: B1 chain with V116R
B3: Hs PCDH1 EC1-4bc (domain or fragment, human)
chain: TRVVYKVPEEQPPNTLIGSLAADYGFPDVGHLYKLEVGAPYLRVDGKTGDIFTTETSIDREGLRECQNQLPGDPCILEFEVSITDLVQNGSPRLLEGQIEVQDINDNTPNFASPVITLAIPENTNIGSLFPIPLASDRDAGPNGVASYELQAGPEAQELFGLQVAEDQEEKQPQLIVMGNLDRERWDSYDLTIKVQDGGSPPRASSALLRVTVLDTNDNAPKFERPSYEAELSENSPIGHSVIQVKANDSDQGANAEIEYTFHQAPEVVRRLLRLDRNTGLITVQGPVDREDLSTLRFSVLAKDRGTNPKSARAQVVVTVKDMNDNAPTIEIRGIGLVTHQDGMANISEDVAEETAVALVQVSDRDEGENAAVTCVVAGDVPFQLRQASETGSDSKKKYFLQTTTPLDYEKVKDYTIEIVAVDSGNPPLSSTNSLKVQVVDVNDNA
notes: Protocadherin-1 (PCDH1), human, repeats EC1 to EC4, without signal peptide; also called PCDH1 EC1-4 (bacterially produced, wild type)
B4: PCDH1 EC1-4Fc (Fc fusion, human)
chain: B3 chain
notes: Protocadherin-1 (PCDH1), human, repeats EC1 to EC4; native signal peptide in the construct; Vector CMV:N1-Fc; PDB 6MGA holds the His-tagged mammalian EC1-4 fragment; source: HEK293T, transfected, secreted into serum-free medium, captured on protein G Dynabeads
B5: PCDH1 EC1-4 C375S (domain or fragment, human)
chain: B3 chain with C375S
notes: Protocadherin-1 (PCDH1), human, repeats EC1 to EC4, without signal peptide; Parent (wild-type bacterial EC1-4) is in PDB 6BX7; also called bacterially produced PCDH1 EC1-4 C375S
B6: Hs PCDH1 EC1-4mc (domain or fragment, human)
chain: B3 chain
modifications: sugars observed at N248 (N-linked) and S430 (O-linked) in the structure
notes: Protocadherin-1 (PCDH1), human, repeats EC1 to EC4; Vector CMV:N1-His; also called PCDH1 EC1-4His
B7: PCDH1 EC1-7Fc (Fc fusion, human, UniProt Q08174 58-852, looked up)
chain: TRVVYKVPEEQPPNTLIGSLAADYGFPDVGHLYKLEVGAPYLRVDGKTGDIFTTETSIDREGLRECQNQLPGDPCILEFEVSITDLVQNGSPRLLEGQIEVQDINDNTPNFASPVITLAIPENTNIGSLFPIPLASDRDAGPNGVASYELQAGPEAQELFGLQVAEDQEEKQPQLIVMGNLDRERWDSYDLTIKVQDGGSPPRASSALLRVTVLDTNDNAPKFERPSYEAELSENSPIGHSVIQVKANDSDQGANAEIEYTFHQAPEVVRRLLRLDRNTGLITVQGPVDREDLSTLRFSVLAKDRGTNPKSARAQVVVTVKDMNDNAPTIEIRGIGLVTHQDGMANISEDVAEETAVALVQVSDRDEGENAAVTCVVAGDVPFQLRQASETGSDSKKKYFLQTTTPLDYEKVKDYTIEIVAVDSGNPPLSSTNSLKVQVVDVNDNAPVFTQSVTEVAFPENNKPGEVIAEITASDADSGSNAELVYSLEPEPAAKGLFTISPETGEIQVKTSLDREQRESYELKVVAADRGSPSLQGTATVLVNVLDCNDNDPKFMLSGYNFSVMENMPALSPVGMVTVIDGDKGENAQVQLSVEQDNGDFVIQNGTGTILSSLSFDREQQSTYTFQLKAVDGGVPPRSAYVGVTINVLDENDNAPYITAPSNTSHKLLTPQTRLGETVSQVAAEDFDSGVNAELIYSIAGGNPYGLFQIGSHSGAITLEKEIERRHHGLHRLVVKVSDRGKPPRYGTALVHLYVNETLANRTLLETLLGHSLDTPLDIDIAGDPEYERSKQRGN
notes: Protocadherin-1 (PCDH1), human, repeats EC1 to EC7 (full-length extracellular domain); native signal peptide in the construct; Vector CMV:N1-Fc; Fc detected with anti-human IgG; also called human Protocadherin-1 full-length extracellular domain, Fc-tagged; wild-type PCDH1 EC1-7Fc; source: HEK293T, transfected, secreted into serum-free medium, captured on protein G Dynabeads
B8: PCDH1 EC1-7Fc V115R (Fc fusion, human, UniProt Q08174 58-852, looked up)
chain: B7 chain with V115R
notes: Protocadherin-1 (PCDH1), human, repeats EC1 to EC7; native signal peptide in the construct; Vector CMV:N1-Fc; source: HEK293T, transfected, secreted into serum-free medium, captured on protein G Dynabeads
B9: PCDH1 EC1-7Fc C375S C548S (Fc fusion, human, UniProt Q08174 58-852, looked up)
chain: B7 chain with C375S, C548S
notes: as for B8

Tests used:
[1] = target: the molecule itself; assay: AUC; sedimentation velocity, 50,000 r.p.m., 20 °C, 20 mM Tris-HCl pH 8.0, 150 mM KCl, 50 mM NaCl, 2 mM CaCl2; dimer to monomers
[2] = target: the molecule itself; assay: crystal structure; vapor diffusion at 4 °C; one molecule in the asymmetric unit, antiparallel dimers formed by crystal symmetry
[3] = target: the molecule itself; assay: bead aggregation assay; Fc fusions from concentrated HEK293T medium bound to protein G Dynabeads, washed; binding buffer 50 mM TrisHCl pH 7.5, 100 mM NaCl, 10 mM KCl, 0.2% BSA with 2 mM CaCl2; 60 min without motion, then 1 and 2 min rocking; aggregates imaged

Protein	stoichiometry N [1]	binding result [3]	other results
B1	2		Kd [1]: < 5 µM
B2	2		
B3			binding result [2]: binds
B4		binds	
B5	2		Kd [1]: < 5 µM
B6			binding result [2]: binds
B7		binds	
B8		binds	
B9		binds	
